Where two headings read alike, the source gives them in different places.
Key:
PSMA = target: T1, PSMA (Homo sapiens, UniProt Q04609); experiment: Competitive cell binding assay on LNCaP cells (PSMA binding affinity); details: competition against 0.2 nM 68Ga-labeled PSMA-10
T1 construct: endogenous in cells; host or cells: LNCaP cells (ATCC CRL-1740)
Experimental: (§1) PSMA^+ LNCaP cells (ATCC CRL-1740) were cultured in RPMI medium supplemented with 10% fetal calf serum and 2 mmol/L L-glutamine (all from PAA). Cells were grown at 37° C. in humidified air with 5% CO2 and were harvested using trypsin-ethylenediaminetetraacetic acid (trypsin-EDTA; 0.25% trypsin, 0.02% EDTA, Invitrogen).
The competitive cell binding assay and internalization experiments were performed as described previously (4). Briefly, the cells (10^5 per well) were incubated with a 0.2 nM solution of ^68Ga-labeled radioligand [Glu-urea-Lys(Ahx)]2-HBED-CC (PSMA-10, precursor ordered from ABX, Radeberg, Germany) in the presence of 12 different concentrations of analyte (0-5000 nM, 100 μL/well). After incubation, the mixture was removed and the wells were washed 3 times with PBS using a multiscreen vacuum manifold (Millipore, Billerica, Mass.). Cell-bound radioactivity was measured using a gamma counter (Packard Cobra II, GMI, Minnesota, USA). The 50% inhibitory concentration (IC50) values were calculated by fitting the data using a nonlinear regression algorithm (GraphPad Software).

PSMA+ LNCaP cells = experiment: Internalization experiments (specific cell surface bound and internalized fractions); format: cell-based; details: 68Ga-labeled compound 30 nM, 45 min
Experimental: as §1
For internalization experiments, 10^5 cells per well were seeded in poly-L-lysine coated 24-well cell culture plates 24 h before incubation. After washing, the cells were incubated with 30 nM of the radiolabeled compound for 45 min at 37° C. and at 4° C., respectively. Cellular uptake was terminated by washing 3 times with 1 mL of ice-cold PBS. To remove surface-bound radioactivity, cells were incubated twice with 0.5 mL glycine-HCl in PBS (50 mM, pH=2.8) for 5 min. The cells were washed with 1 mL of ice-cold PBS and lysed using 0.3 N NaOH (0.5 mL). The surface-bound and the internalized fractions were measured in a gamma counter. The cell uptake was calculated as percent of the initially added radioactivity bound to 10^5 cells [% ID/10^5 cells].

[1] = Biodistribution (organ distribution) of 68Ga-labeled compounds; format: in vivo, mice; details: male, BALB/c nu/nu, mouse, iv, 60 pmol, total radioactivity
Experimental: (§2) The precursor peptides [1 nmol in HEPES buffer (580 mg/ml), 90 μL] were added to 40 μL [^68Ga]Ga^3+ eluate (˜40 MBq). The pH was adjusted to 3.8 using 30% NaOH and 10% NaOH, respectively. The reaction mixture was incubated at 98° C. for 10 minutes. The radiochemical yield (RCY) was determined by HPLC. For the experimental tumor models 5×10^6 cells of LNCaP (in 50% Matrigel; Becton Dickinson, Heidelberg, Germany) were subcutaneously inoculated into the right trunk of 7- to 8-week-old male BALB/c nu/nu mice (Charles River). The tumors were allowed to grow until approximately 1 cm^3 in size. The ^68Ga-labeled compounds were injected into a tail vein (1-2 MBq; 60 pmol). […] Organs of interest were dissected, blotted dry, and weighed. The radioactivity was measured using a gamma counter and calculated as % ID/g. All animal experiments complied with the current laws of the Federal Republic of Germany.

[2] = test system: LNCaP-tumor bearing balb/c nu/nu mice; experiment: as above; format: in vivo
Experimental: as §2

[3] = listed as PSMA-HBED-CC-PEG2-IRDye8000CW
[4] = in vivo, Organ distribution Blood
[5] = in vivo, Organ distribution Brain
[6] = in vivo, Organ distribution Heart
[7] = in vivo, Organ distribution Intestine
[8] = in vivo, Organ distribution Kidney
[9] = in vivo, Organ distribution Liver
[10] = in vivo, Organ distribution Lung
[11] = in vivo, Organ distribution Muscle
[12] = in vivo, Organ distribution Spleen

T1 sequence (Q04609 whole entry): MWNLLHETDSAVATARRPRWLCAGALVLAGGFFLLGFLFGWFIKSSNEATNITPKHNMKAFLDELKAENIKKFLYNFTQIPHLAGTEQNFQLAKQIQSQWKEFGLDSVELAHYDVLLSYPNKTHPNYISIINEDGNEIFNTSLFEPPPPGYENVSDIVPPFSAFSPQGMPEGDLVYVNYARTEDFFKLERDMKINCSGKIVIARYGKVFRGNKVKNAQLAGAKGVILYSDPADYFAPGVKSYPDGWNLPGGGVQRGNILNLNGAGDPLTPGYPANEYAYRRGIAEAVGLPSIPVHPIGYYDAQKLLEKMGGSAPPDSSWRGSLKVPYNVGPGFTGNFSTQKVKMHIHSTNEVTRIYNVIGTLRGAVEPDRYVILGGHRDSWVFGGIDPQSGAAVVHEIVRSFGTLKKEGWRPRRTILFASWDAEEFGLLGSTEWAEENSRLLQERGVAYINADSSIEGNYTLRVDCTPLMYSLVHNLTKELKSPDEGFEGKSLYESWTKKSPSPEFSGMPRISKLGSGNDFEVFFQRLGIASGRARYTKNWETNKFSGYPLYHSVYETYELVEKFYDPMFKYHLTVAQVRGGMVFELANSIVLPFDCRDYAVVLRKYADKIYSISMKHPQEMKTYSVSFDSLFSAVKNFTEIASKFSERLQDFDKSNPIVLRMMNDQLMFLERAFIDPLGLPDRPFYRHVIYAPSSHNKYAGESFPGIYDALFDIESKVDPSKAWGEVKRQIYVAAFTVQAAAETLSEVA

CC1(C)C(/C=C/C2=C(Oc3ccc(S(=O)(=O)O)cc3)C(=C\C=C3/N(CCCCS(=O)(=O)O)c4ccc(S(=O)(=O)O)cc4C3(C)C)/CCC2)=[N+](CCCCCC(=O)NCCOCCOCCNC(=O)CCc2ccc(O)c(CN(CCN(CC(=O)O)Cc3cc(CCC(=O)NCCCCC(NC(=O)NC(CCC(=O)O)C(=O)O)C(=O)O)ccc3O)CC(=O)O)c2)c2ccc(S(=O)(=O)O)cc21 (stereo not shown) [PSMA-HBED-CC-PEG2-IRDye800CW, Glu-urea-Lys-HBED-CC-PEG2-IRDye800CW, reference compound]
Ki (PSMA): 17.5 ± 4.98 nM
Specific cell surface bound (PSMA+ LNCaP cells): improved
Specific internalized (PSMA+ LNCaP cells): improved
Specific cell surface bound (PSMA+ LNCaP cells; [3]): 13.62 ± 4.79 % ID/10^5 cells
Specific internalized (PSMA+ LNCaP cells; [3]): 18.70 ± 7.03 % ID/10^5 cells
tissue uptake at 1 h [1, 4]: 3.04 %ID/g
tissue uptake at 2 h [1, 4]: 0.76 %ID/g
tissue uptake at 1 h [1, 5]: 0.43 %ID/g
tissue uptake at 2 h [1, 5]: 0.22 %ID/g
tissue uptake at 1 h [1, 6]: 2.78 %ID/g
tissue uptake at 2 h [1, 6]: 1 %ID/g
tissue uptake at 1 h [1, 7]: 2.41 %ID/g
tissue uptake at 2 h [1, 7]: 1.37 %ID/g
tissue uptake at 1 h [1, 8]: 205 %ID/g
tissue uptake at 2 h [1, 8]: 120 %ID/g
tissue uptake at 1 h [1, 9]: 2.76 %ID/g
tissue uptake at 2 h [1, 9]: 1.21 %ID/g
tissue uptake at 1 h [1, 10]: 5.6 %ID/g
tissue uptake at 2 h [1, 10]: 2.53 %ID/g
tissue uptake at 1 h [1, 11]: 2.86 %ID/g
tissue uptake at 2 h [1, 11]: 1.96 %ID/g
tissue uptake at 1 h [1, 12]: 38.1 %ID/g
tissue uptake at 2 h [1, 12]: 13.7 %ID/g
tissue uptake at 2 h ([1]; in vivo, Organ distribution Tumor): 7.94 %ID/g
tissue uptake at 1 h ([1]; in vivo, Organ distribution Tumor (tumor accumulation)): 13.7 %ID/g
tissue to tissue ratio at 1 h ([1]; in vivo, Tumor-to-Organ ratio T/Blood): 4.49
tissue to tissue ratio at 1 h ([1]; in vivo, Tumor-to-Organ ratio T/Brain): 31.4
tissue to tissue ratio at 1 h ([1]; in vivo, Tumor-to-Organ ratio T/Heart): 4.92
tissue to tissue ratio at 1 h ([1]; in vivo, Tumor-to-Organ ratio T/Intestine): 5.66
tissue to tissue ratio at 1 h ([1]; in vivo, Tumor-to-Organ ratio T/Liver): 4.94
tissue to tissue ratio at 1 h ([1]; in vivo, Tumor-to-Organ ratio T/Lung): 2.44
tissue to tissue ratio at 1 h ([1]; in vivo, Tumor-to-Organ ratio T/Muscle): 4.78
tissue to tissue ratio at 1 h ([1]; in vivo, Tumor-to-Organ ratio T/Spleen): 0.36
tissue to tissue ratio at 1 h ([1]; tumor and kidney, 68Ga labeled, 1 h p.i., read-out: Tumor-to-Organ ratio T/Kidney): 0.07
Tumor-to-Organ ratio T/Kidney ([2]; 68Ga labeled, 1 h p.i.): 0.07
Tumor-to-Organ ratio T/Blood ([2]; mouse, in vivo): 4.49
Tumor-to-Organ ratio T/Brain ([2]; mouse, in vivo): 31.39
Tumor-to-Organ ratio T/Heart ([2]; mouse, in vivo): 4.92
Tumor-to-Organ ratio T/Intestine ([2]; mouse, in vivo): 5.66
Tumor-to-Organ ratio T/Liver ([2]; mouse, in vivo): 4.94
Tumor-to-Organ ratio T/Lung ([2]; mouse, in vivo): 2.44
Tumor-to-Organ ratio T/Muscle ([2]; mouse, in vivo): 4.78
Tumor-to-Organ ratio T/Spleen ([2]; mouse, in vivo): 0.36

Reference: US12156920B2, “Double-labeled probe for molecular imaging and use thereof” (Deutsches Krebsforschungszentrum, priority 2017, dated 2024)
